This note sets out measurements from patent publication US20250188154A1.

Like-named read-outs stand apart in the source and are kept apart here. Bounds are passed on as bounds.

In assay [1] the target is SARS-CoV-2 Spike-2P stabilized S ectodomain trimer (SARS-CoV-2) (UniProt P0DTC2).
Assay [2] concerns the target SARS-CoV-2 spike on live virus (Isolate USA-WA1/2020) (SARS-CoV-2) (UniProt P0DTC2). The assay can be described thus: cell-based or functional assay.
The target in assay [3] is SARS-CoV-2 Spike-2P stabilized S ectodomain trimer (SARS-CoV-2) (UniProt P0DTC2). The assay is described as follows: ACE2 blocking, ELISA-based assay (Genscript).
Assay [4] addresses SARS-CoV-2 2AA MA virus spike (SARS-CoV-2) (UniProt P0DTC2). The assay can be described thus: cell-based or functional assay.
The target of assay [5] is SARS-CoV-2 B.1.1.7 live virus spike (SARS-CoV-2) (UniProt P0DTC2). The assay can be described thus: cell-based or functional assay.
Assay [6] addresses SARS-CoV-2 B.1.351 live virus spike (SARS-CoV-2) (UniProt P0DTC2). The assay can be described thus: cell-based or functional assay.

As for DH1042 (antibody), in assay [1], the IC50 was below 0.2 µg/mL and the IC80 is 0.371 µg/mL. Also, in assay [2], the Bioqual PRNT IC50 was determined as 0.156 µg/mL, the Bioqual PRNT IC90 stood at 0.625 µg/mL, the Duke RBL PRNT IC50 stood at 0.073 µg/mL and the Duke RBL PRNT IC90 amounted to 0.625 µg/mL. In assay [2], this substance returned an SARS-CoV-2 neutralization IC50 of 0.071 µg/mL, an SARS-CoV-2 neutralization IC80 of 0.269 µg/mL, an SARS-CoV-2 neutralization IC90 of 0.578 µg/mL and an SARS-CoV-2 neutralization Minimal Effective conc. of 0.28 µg/mL. The IC50 in assay [3] is below 0.2 µg/mL.

Regarding DH1047 (antibody), in assay [1], the IC50 is 0.078 µg/mL and the 80% effect concentration (IC80) was 0.567 µg/mL. Moreover, in assay [4], the live virus neutralization IC50 was 0.397 µg/mL. For the same substance, in assay [5], the live virus neutralization IC50 was 0.081 µg/mL. The substance also came in with a live virus neutralization IC50 in assay [6] of 0.111 µg/mL. Moreover, in assay [2], the SARS-CoV-2 neutralization IC50 amounted to 0.124 µg/mL, the SARS-CoV-2 neutralization IC80 came out at 0.666 µg/mL, the SARS-CoV-2 neutralization IC90 stood at 1.77 µg/mL and the SARS-CoV-2 neutralization Minimal Effective conc. came out at 1.1 µg/mL.
